# T1: PUF4 RNA-binding domain (Saccharomyces cerevisiae, UniProt P25339 537-888)
# T1 sequence: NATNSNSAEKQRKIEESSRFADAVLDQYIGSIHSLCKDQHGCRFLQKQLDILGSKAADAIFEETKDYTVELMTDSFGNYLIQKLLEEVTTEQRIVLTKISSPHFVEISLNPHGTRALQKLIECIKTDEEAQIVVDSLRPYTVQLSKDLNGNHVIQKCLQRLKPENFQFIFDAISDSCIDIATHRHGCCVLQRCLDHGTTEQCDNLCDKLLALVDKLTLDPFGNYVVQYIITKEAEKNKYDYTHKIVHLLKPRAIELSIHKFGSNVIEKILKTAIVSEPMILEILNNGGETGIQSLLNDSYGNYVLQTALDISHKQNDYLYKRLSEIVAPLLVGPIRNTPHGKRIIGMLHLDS
# Biological target: T1, PUF4 RNA-binding domain
# Experiment: Mg; RNA-MaP; 20 mM Na-HEPES pH 7.4, 30 mM KOAc, 0.75 mM MgCl2, 0.1% Tween-20, 5% glycerol, 0.1 mg/mL BSA, 2 mM DTT; 25 C; 0.0125-409.6 nM protein
# Details: tags: N-His6-TEV cleaved; C-SNAP kept, Cy3B-labelled; label: tethered on chip by stalled RNA polymerase
row,Binder,Kd [µM]
1,UCUCUUGUACACUAUUACCUCUCUU (ssRNA) [Id_ii_S1_P4E.4_K4.3_C4.2_[C-2G]_H4.3_A4.1_F4.1_T4.2_[G10C]_[T11C]],0.000615
2,UCUCUUCUUAUAUAUUACAUCUCUU (ssRNA) [Id_ii_S1_P4E.3_K4.2_C4.2_H4.2_A4.1_F4.1_T4.2_[G10C]_[T11A]],0.0135
3,UCUCUUUGACACUAUUAACUCUCUU (ssRNA) [Id_ii_S1_P4E.4_K4.3_C4.2_[C-2T]_[T-1G]_H4.3_A4.1_F4.1_T4.2_[G10A]_[T11C]],> 2.3
4,UCUCUUUGACACUAUUAUAUCUCUU (ssRNA) [Id_ii_S1_P4E.4_K4.3_C4.2_[C-2T]_[T-1G]_H4.3_A4.1_F4.1_T4.2_[G10T]_[T11A]],2.18
5,UCUCUUUCACACUAUUAUCUCUCUU (ssRNA) [Id_ii_S1_P4E.4_K4.3_C4.2_[C-2T]_[T-1C]_H4.3_A4.1_F4.1_T4.2_[G10T]_[T11C]],> 2.3
6,UCUCUUCUUAUAUAUUAAAUCUCUU (ssRNA) [Id_ii_S1_P4E.3_K4.2_C4.2_H4.2_A4.1_F4.1_T4.2_[G10A]_[T11A]],0.0435
7,UCUCUUUGUAUAUCUCUCUU (ssRNA) [Ia_S1_P3E.1_K3.1_C3.1_H3.1_A3.1_F3.1_[A8C]_T3.1],0.0148
8,UCUCUUGUACACUAUUAUAUCUCUU (ssRNA) [Id_ii_S1_P4E.4_K4.3_C4.2_[C-2G]_H4.3_A4.1_F4.1_T4.2_[G10T]_[T11A]],0.00108
9,UCUCUUUGUAUUACUAUCUCUU (ssRNA) [Ia_S1_P5E.1_K5.1_C5.1_H5.1_A5.1_F5.1_[T8C]_T5.1],0.00998
10,UCUCUUUGACACUAUUAUUUCUCUU (ssRNA) [Id_ii_S1_P4E.4_K4.3_C4.2_[C-2T]_[T-1G]_H4.3_A4.1_F4.1_T4.2_[G10T]],> 2.3
11,UCUCUUGCACACUAUUAGUUCUCUU (ssRNA) [Id_ii_S1_P4E.4_K4.3_C4.2_[C-2G]_[T-1C]_H4.3_A4.1_F4.1_T4.2],0.347
12,UCUCUUUAACACUAUUACUUCUCUU (ssRNA) [Id_ii_S1_P4E.4_K4.3_C4.2_[C-2T]_[T-1A]_H4.3_A4.1_F4.1_T4.2_[G10C]],> 2.3
13,UCUCUUCUUAUAUAUUAUGUCUCUU (ssRNA) [Id_ii_S1_P4E.3_K4.2_C4.2_H4.2_A4.1_F4.1_T4.2_[G10T]_[T11G]],0.0122
14,UCUCUUGCACACUAUUAUUUCUCUU (ssRNA) [Id_ii_S1_P4E.4_K4.3_C4.2_[C-2G]_[T-1C]_H4.3_A4.1_F4.1_T4.2_[G10T]],0.0711
15,UCUCUUUGACACUAUUACUUCUCUU (ssRNA) [Id_ii_S1_P4E.4_K4.3_C4.2_[C-2T]_[T-1G]_H4.3_A4.1_F4.1_T4.2_[G10C]],> 2.3
16,UCUCUUGCACACUAUUAACUCUCUU (ssRNA) [Id_ii_S1_P4E.4_K4.3_C4.2_[C-2G]_[T-1C]_H4.3_A4.1_F4.1_T4.2_[G10A]_[T11C]],0.0695
17,UCUCUUCUUAUAUAUUAGUUCUCUU (ssRNA) [If_S1_P4E.3_K4.2_C4.2_H4.2_A4.1_F4.1_T4.2],0.00755
18,UCUCUUUGUCUAAUAUCUCUU (ssRNA) [Ib_S1_P4E.1_K4.1_C4.1_H4.1_[A4C]_A4.1_[T7A]_F4.1_T4.1],0.0839
19,UCUCUUGUACACUAUUAUCUCUCUU (ssRNA) [Id_ii_S1_P4E.4_K4.3_C4.2_[C-2G]_H4.3_A4.1_F4.1_T4.2_[G10T]_[T11C]],0.000681
20,UCUCUUGCACACUAUUACGUCUCUU (ssRNA) [Id_ii_S1_P4E.4_K4.3_C4.2_[C-2G]_[T-1C]_H4.3_A4.1_F4.1_T4.2_[G10C]_[T11G]],0.408
21,UCUCUUGUACACUAUUAACUCUCUU (ssRNA) [Id_ii_S1_P4E.4_K4.3_C4.2_[C-2G]_H4.3_A4.1_F4.1_T4.2_[G10A]_[T11C]],0.000968
22,UCUCUUUCACACUAUUACUUCUCUU (ssRNA) [Id_ii_S1_P4E.4_K4.3_C4.2_[C-2T]_[T-1C]_H4.3_A4.1_F4.1_T4.2_[G10C]],> 2.3
23,UCUCUUCUUAUAUAUUAUAUCUCUU (ssRNA) [Id_ii_S1_P4E.3_K4.2_C4.2_H4.2_A4.1_F4.1_T4.2_[G10T]_[T11A]],0.0277
24,UCUCUUCUUAUAUAUUAUCUCUCUU (ssRNA) [Id_ii_S1_P4E.3_K4.2_C4.2_H4.2_A4.1_F4.1_T4.2_[G10T]_[T11C]],0.0139
25,UCUCUUGCACACUAUUAUAUCUCUU (ssRNA) [Id_ii_S1_P4E.4_K4.3_C4.2_[C-2G]_[T-1C]_H4.3_A4.1_F4.1_T4.2_[G10T]_[T11A]],0.351

row,Binder,Kd [µM]
1,UCUCUUUCACACUAUUACCUCUCUU (ssRNA) [Id_ii_S1_P4E.4_K4.3_C4.2_[C-2T]_[T-1C]_H4.3_A4.1_F4.1_T4.2_[G10C]_[T11C]],> 2.3
2,UCUCUUCUUAUAUAUUAGCUCUCUU (ssRNA) [Id_ii_S1_P4E.3_K4.2_C4.2_H4.2_A4.1_F4.1_T4.2_[T11C]],0.0078
3,UCUCUUUGACACUAUUACCUCUCUU (ssRNA) [Id_ii_S1_P4E.4_K4.3_C4.2_[C-2T]_[T-1G]_H4.3_A4.1_F4.1_T4.2_[G10C]_[T11C]],> 2.3
4,UCUCUUGUACACUAUUAAAUCUCUU (ssRNA) [Id_ii_S1_P4E.4_K4.3_C4.2_[C-2G]_H4.3_A4.1_F4.1_T4.2_[G10A]_[T11A]],0.000983
5,UCUCUUUGACACUAUUAUCUCUCUU (ssRNA) [Id_ii_S1_P4E.4_K4.3_C4.2_[C-2T]_[T-1G]_H4.3_A4.1_F4.1_T4.2_[G10T]_[T11C]],> 2.3
6,UCUCUUCAUAUAUAUUAGUUCUCUU (ssRNA) [Id_ii_S1_P4E.3_K4.2_C4.2_[T-1A]_H4.2_A4.1_F4.1_T4.2],0.00818
7,UCUCUUGUACACUAUUAAUUCUCUU (ssRNA) [Id_ii_S1_P4E.4_K4.3_C4.2_[C-2G]_H4.3_A4.1_F4.1_T4.2_[G10A]],0.00104
8,UCUCUUUGUUUAGUAUCUCUU (ssRNA) [Ib_S1_P4E.1_K4.1_C4.1_H4.1_[A4T]_A4.1_[T7G]_F4.1_T4.1],0.0244
9,UCUCUUUGACACUAUUAGCUCUCUU (ssRNA) [Id_ii_S1_P4E.4_K4.3_C4.2_[C-2T]_[T-1G]_H4.3_A4.1_F4.1_T4.2_[T11C]],> 2.3
10,UCUCUUUGACACUAUUACAUCUCUU (ssRNA) [Id_ii_S1_P4E.4_K4.3_C4.2_[C-2T]_[T-1G]_H4.3_A4.1_F4.1_T4.2_[G10C]_[T11A]],> 2.3
11,UCUCUUGCACACUAUUAUCUCUCUU (ssRNA) [Id_ii_S1_P4E.4_K4.3_C4.2_[C-2G]_[T-1C]_H4.3_A4.1_F4.1_T4.2_[G10T]_[T11C]],0.0913
12,UCUCUUCUUAUAUAUUACGUCUCUU (ssRNA) [Id_ii_S1_P4E.3_K4.2_C4.2_H4.2_A4.1_F4.1_T4.2_[G10C]_[T11G]],0.0166
13,UCUCUUGCACACUAUUACAUCUCUU (ssRNA) [Id_ii_S1_P4E.4_K4.3_C4.2_[C-2G]_[T-1C]_H4.3_A4.1_F4.1_T4.2_[G10C]_[T11A]],0.0991
14,UCUCUUGUACACUAUUAGUUCUCUU (ssRNA) [Id_ii_S1_P4E.4_K4.3_C4.2_[C-2G]_H4.3_A4.1_F4.1_T4.2],0.00127
15,UCUCUUCUUAUAUAUUACUUCUCUU (ssRNA) [Id_ii_S1_P4E.3_K4.2_C4.2_H4.2_A4.1_F4.1_T4.2_[G10C]],0.0183
16,UCUCUUCUUAUAUAUUAAUUCUCUU (ssRNA) [Id_ii_S1_P4E.3_K4.2_C4.2_H4.2_A4.1_F4.1_T4.2_[G10A]],0.0189
17,UCUCUUGCACACUAUUAAUUCUCUU (ssRNA) [Id_ii_S1_P4E.4_K4.3_C4.2_[C-2G]_[T-1C]_H4.3_A4.1_F4.1_T4.2_[G10A]],0.0938
18,UCUCUUGCACACUAUUAAAUCUCUU (ssRNA) [Id_ii_S1_P4E.4_K4.3_C4.2_[C-2G]_[T-1C]_H4.3_A4.1_F4.1_T4.2_[G10A]_[T11A]],0.131
19,UCUCUUCUUAUAUAUUAUUUCUCUU (ssRNA) [Id_ii_S1_P4E.3_K4.2_C4.2_H4.2_A4.1_F4.1_T4.2_[G10T]],0.0157
20,UCUCUUGCACACUAUUACUUCUCUU (ssRNA) [Id_ii_S1_P4E.4_K4.3_C4.2_[C-2G]_[T-1C]_H4.3_A4.1_F4.1_T4.2_[G10C]],0.0741
21,UCUCUUUGUAGCUUAUCUCUU (ssRNA) [Ic_S1_P4E.1_K4.1_C4.1_H4.1_A4.1_[T5G]_[A6C]_F4.1_T4.1],0.0286
22,UCUCUUUGUGUAAUAUCUCUU (ssRNA) [Ib_S1_P4E.1_K4.1_C4.1_H4.1_[A4G]_A4.1_[T7A]_F4.1_T4.1],0.0104
23,UCUCUUGUACACUAUUAUUUCUCUU (ssRNA) [Id_ii_S1_P4E.4_K4.3_C4.2_[C-2G]_H4.3_A4.1_F4.1_T4.2_[G10T]],0.000832
24,UCUCUUGUACACUAUUAGCUCUCUU (ssRNA) [Id_ii_S1_P4E.4_K4.3_C4.2_[C-2G]_H4.3_A4.1_F4.1_T4.2_[T11C]],0.000962

# Source: publication PMC9352680, “A comprehensive thermodynamic model for RNA binding by the Saccharomyces cerevisiae Pumilio protein PUF4”
